Results taken from PMC8897410.

What was measured:
FimT Lp [1] = molecular target: T1, FimT Lp (Legionella pneumophila, UniProt Q5ZVL2 38-162); assay: NMR titration; 50 mM NaCl; 50 mM Tris-HCl pH 7.2, 50 mM NaCl; […]; ITC 30 C; MST 50-150 mM NaCl, 0.05% Tween-20, […]; settings: protein: recombinant; tags: His6-SUMO cleaved; blunt
FimT Lp [2] = molecular target: T1, FimT Lp; assay: ITC; 50 mM Tris-HCl pH 7.2, 50 mM NaCl; […]; ITC 30 C; MST 50-150 mM NaCl, 0.05% Tween-20, […]; settings: protein: recombinant; tags: His6-SUMO cleaved; blunt
FimT Lp [3] = molecular target: T1, FimT Lp; assay: ITC; 50 mM NaCl, 30 C; N 1.09; 50 mM Tris-HCl pH 7.2, 50 mM NaCl; […]; ITC 30 C; MST 50-150 mM NaCl, 0.05% Tween-20, […]; settings: protein: recombinant; tags: His6-SUMO cleaved
PilA1 Lp = PilA1 Lp (Legionella pneumophila, UniProt Q5ZU93 35-142); assay: EMSA; up to 100 uM protein; 50 mM Tris-HCl pH 7.2, 50 mM NaCl; […]; ITC 30 C; MST 50-150 mM NaCl, 0.05% Tween-20, […]; settings: protein: recombinant; tags: His6 cleaved (PreScission); blunt
FimU Lp = FimU Lp (Legionella pneumophila, UniProt Q5ZXU9 96-235); assay: as above; settings: protein: recombinant; tags: His6-SUMO cleaved; blunt
PilA2 Lp = PilA2 Lp (Legionella pneumophila, UniProt Q5ZU92 34-140); assay: as above; settings: protein: recombinant; tags: His6 cleaved (PreScission); blunt
FimT Lp [4] = molecular target: T1, FimT Lp; assay: EMSA; Kd stated as low uM range; 50 mM Tris-HCl pH 7.2, 50 mM NaCl; […]; ITC 30 C; MST 50-150 mM NaCl, 0.05% Tween-20, […]; settings: protein: recombinant; tags: His6-SUMO cleaved; blunt
FimT Pa = FimT Pa (Pseudomonas aeruginosa PAO1, UniProt Q9HVN0 36-169); assay: EMSA; affinity same order of magnitude as FimT Lp; 50 mM Tris-HCl pH 7.2, 50 mM NaCl; […]; ITC 30 C; MST 50-150 mM NaCl, 0.05% Tween-20, […]; settings: protein: recombinant; tags: His6-SUMO cleaved; blunt
FimT Xc = FimT Xc (Xanthomonas campestris pv. campestris …, UniProt Q8P7X0 39-183); assay: as above; settings: protein: recombinant; tags: His6-SUMO cleaved; blunt
FimT Lp [5] = molecular target: T1, FimT Lp; assay: EMSA; 50 mM Tris-HCl pH 7.2, 50 mM NaCl; […]; ITC 30 C; MST 50-150 mM NaCl, 0.05% Tween-20, […]; settings: protein: recombinant; tags: His6-SUMO cleaved
FimT Lp [6] = molecular target: T1, FimT Lp; assay: MST/TRIC; 50 mM NaCl; 50 mM Tris-HCl pH 7.2, 50 mM NaCl; […]; ITC 30 C; MST 50-150 mM NaCl, 0.05% Tween-20, […]; settings: protein: recombinant; tags: His6-SUMO cleaved; label: 5'-FAM on one strand; blunt

B1: 12mer dsDNA (dsDNA)
DNA 1: GTTCGCAACGAA
DNA 2: TTCGTTGCGAAC
Binder B1 has a Kd (FimT Lp [1]) of about 8.1 µM and a Kd (FimT Lp [2]) of 2.8 ± 0.2 µM.

In the case of GTTCGCAACGAA (ssDNA) [12mer ssDNA], the Kd (FimT Lp [3]) is reported as 7 ± 0.3 µM.

B2: 30mer dsDNA (dsDNA)
DNA 1: TTAAATAGGCTTGGCAGGGTTAGGGTAGGG
DNA 2: CCCTACCCTAACCCTGCCAAGCCTATTTAA
B2: no binding (PilA1 Lp); no binding (FimU Lp); no binding (PilA2 Lp). B2: binds (FimT Lp [4]); binds (FimT Pa); binds (FimT Xc).

TTAAATAGGCTTGGCAGGGTTAGGGTAGGG (ssDNA) [30mer ssDNA]: binds (FimT Lp [5]).

B3: FAM-12mer dsDNA (dsDNA)
DNA 1: GTTCGCAACGAA
DNA 2: TTCGTTGCGAAC
B3 showed a Kd (FimT Lp [6]) of 6.3 ± 0.9 µM.
